Test results: publication PMC4148193, “Chromatin Insulator Factors Involved in Long-Range DNA Interactions and Their Role in the Folding of the Drosophila Genome” (PLoS Genetics, 2014)

Tests used:
[1] = target: T1, CP190-C (Drosophila, UniProt Q24478 599-1096); test: FCS; 50 nM; FA/FCS: 30 mM Tris/HCl pH 7.5, 100 mM NaCl, 20 uM ZnSO4, 5 mM mercaptoethanol, 0.01 mg/ml BSA, 0.004% Tween20, 2.5 nM DNA; EMSA: 150 mM NaCl, 30 mM Tris/HCl pH; details: protein: recombinant; tags: N-term 6xHis; blunt
T1 sequence: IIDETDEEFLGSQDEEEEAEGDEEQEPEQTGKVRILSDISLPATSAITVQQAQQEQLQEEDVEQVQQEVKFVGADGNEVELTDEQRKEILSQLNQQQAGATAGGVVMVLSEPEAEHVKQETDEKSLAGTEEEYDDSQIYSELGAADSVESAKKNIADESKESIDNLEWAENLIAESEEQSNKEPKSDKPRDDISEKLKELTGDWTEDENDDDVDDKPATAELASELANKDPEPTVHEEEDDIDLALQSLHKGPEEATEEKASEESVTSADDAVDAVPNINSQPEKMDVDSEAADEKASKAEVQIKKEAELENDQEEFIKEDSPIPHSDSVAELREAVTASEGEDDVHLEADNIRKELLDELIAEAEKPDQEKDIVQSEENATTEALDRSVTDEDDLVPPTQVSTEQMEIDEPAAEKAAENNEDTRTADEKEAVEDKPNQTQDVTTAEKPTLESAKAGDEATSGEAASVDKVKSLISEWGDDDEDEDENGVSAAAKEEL

[2] = target: T2, BEAF32 (BEAF32B) (Drosophila, UniProt Q94513 1-282); test: fluorescence anisotropy; Hill n=3±0.4; 20 uM ZnSO4; FA/FCS: 30 mM Tris/HCl pH 7.5, 100 mM NaCl, 20 uM ZnSO4, 5 mM mercaptoethanol, 0.01 mg/ml BSA, 0.004% Tween20, 2.5 nM DNA; EMSA: 150 mM NaCl, 30 mM Tris/HCl pH; details: protein: recombinant; tags: N-term MBP; C-term 6xHis; blunt
T2 sequence: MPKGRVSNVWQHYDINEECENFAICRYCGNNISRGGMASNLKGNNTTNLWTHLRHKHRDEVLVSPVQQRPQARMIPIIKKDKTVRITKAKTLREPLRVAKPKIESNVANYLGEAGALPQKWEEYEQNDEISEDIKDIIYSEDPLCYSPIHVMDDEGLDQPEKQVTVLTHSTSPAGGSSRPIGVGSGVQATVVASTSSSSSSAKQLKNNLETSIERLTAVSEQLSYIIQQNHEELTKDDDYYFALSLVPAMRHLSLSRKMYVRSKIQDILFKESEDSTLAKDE

[3] = target: T2, BEAF32 (BEAF32B); test: competition; unlabeled DNAS vs 2.5 nM Cy3B-DNAS, 100 nM BEAF32; FA/FCS: 30 mM Tris/HCl pH 7.5, 100 mM NaCl, 20 uM ZnSO4, 5 mM mercaptoethanol, 0.01 mg/ml BSA, 0.004% Tween20, 2.5 nM DNA; EMSA: 150 mM NaCl, 30 mM Tris/HCl pH; details: protein: recombinant; tags: N-term MBP; C-term 6xHis; blunt
[4] = target: T3, BEAF32 (BEAF32B);CP190-C (Drosophila;Drosophila, UniProt Q94513;Q24478 1-282;599-1096, |); test: FCS/PIE-FCCS; 400 nM BEAF32, 50 nM CP190-C; diffusion time slightly decreased, BEAF32 stays bound, no bridging; FA/FCS: 30 mM Tris/HCl pH 7.5, 100 mM NaCl, 20 uM ZnSO4, 5 mM mercaptoethanol, 0.01 mg/ml BSA, 0.004% Tween20, 2.5 nM DNA; EMSA: 150 mM NaCl, 30 mM Tris/HCl pH; details: protein: recombinant;recombinant; tags: N-term MBP; C-term 6xHis;N-term 6xHis; blunt
T3 sequence 1: T2 sequence
T3 sequence 2: T1 sequence

[5] = target: T4, BEAF32 (BEAF32B);Chromator-C (Drosophila;Drosophila, UniProt Q94513;Q86BS3 1-282;601-926, |); test: FCS/PIE-FCCS; 800 nM BEAF32, 100 nM Chromator-C; diffusion time slightly decreased, BEAF32 stays bound, no bridging; FA/FCS: 30 mM Tris/HCl pH 7.5, 100 mM NaCl, 20 uM ZnSO4, 5 mM mercaptoethanol, 0.01 mg/ml BSA, 0.004% Tween20, 2.5 nM DNA; EMSA: 150 mM NaCl, 30 mM Tris/HCl pH; details: protein: recombinant;recombinant; tags: N-term MBP; C-term 6xHis;N-term 6xHis; blunt
T4 sequence 1: T2 sequence
T4 sequence 2: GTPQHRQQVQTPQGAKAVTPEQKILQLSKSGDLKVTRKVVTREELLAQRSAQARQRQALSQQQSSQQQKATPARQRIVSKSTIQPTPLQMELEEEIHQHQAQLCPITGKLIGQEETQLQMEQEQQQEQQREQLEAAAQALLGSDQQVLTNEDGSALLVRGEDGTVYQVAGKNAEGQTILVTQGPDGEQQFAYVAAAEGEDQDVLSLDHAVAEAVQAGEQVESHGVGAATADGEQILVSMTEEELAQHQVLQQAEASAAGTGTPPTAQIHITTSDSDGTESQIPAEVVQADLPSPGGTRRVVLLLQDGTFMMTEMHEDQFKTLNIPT

B1: DNAS (dsDNA)
DNA 1: AGAAGTCAGCGCGATAGCATCGATATTTTCGTGACACGCTTGTCATCCGATAGGTAGT
DNA 2: ACTACCTATCGGATGACAAGCGTGTCACGAAAATATCGATGCTATCGCGCTGACTTCT
[1]
  binding result: no binding
[2]
  Kd: 68 ± 5 nM
[3]
  Ki: 20 ± 4 nM
[4]
  binding result: binds
[5]
  binding result: binds
